Measured values from publication PMC9389836.

Legend:
Assay in all cases: SEC
[1] = biological target: SARS-CoV-2 Nsp15 T115A (SARS-CoV-2)
[2] = biological target: SARS-CoV-2 Nsp15 G18R (SARS-CoV-2)
[3] = biological target: SARS-CoV-2 Nsp15 T113I (SARS-CoV-2)
[4] = biological target: SARS-CoV-2 Nsp15 T34I (SARS-CoV-2)
[5] = biological target: SARS-CoV-2 Nsp15 K13N (SARS-CoV-2)
[6] = biological target: SARS-CoV-2 Nsp15 H235Y (SARS-CoV-2)
[7] = biological target: SARS-CoV-2 Nsp15 K290N (SARS-CoV-2)
[8] = biological target: SARS-CoV-2 Nsp15 G18E (SARS-CoV-2)
[9] = biological target: SARS-CoV-2 Nsp15 R207S (SARS-CoV-2)
[10] = biological target: SARS-CoV-2 Nsp15 A93S (SARS-CoV-2)
[11] = biological target: SARS-CoV-2 Nsp15 L163F (SARS-CoV-2)
[12] = biological target: SARS-CoV-2 Nsp15 D133Y (SARS-CoV-2)
[13] = biological target: SARS-CoV-2 Nsp15 K13R (SARS-CoV-2)
[14] = biological target: SARS-CoV-2 Nsp15 V321M (SARS-CoV-2)
[15] = biological target: SARS-CoV-2 Nsp15 W333C (SARS-CoV-2)
[16] = biological target: SARS-CoV-2 Nsp15 P206S (SARS-CoV-2)
[17] = biological target: SARS-CoV-2 Nsp15 V128F (SARS-CoV-2)

SARS-CoV-2 Nsp15 T115A (enzyme)
hexamer/monomer ratio [1]: 0.55

SARS-CoV-2 Nsp15 G18R (enzyme)
hexamer/monomer ratio [2]: 0.88

SARS-CoV-2 Nsp15 T113I (enzyme)
hexamer/monomer ratio [3]: 1.79

SARS-CoV-2 Nsp15 T34I (enzyme)
hexamer/monomer ratio [4]: 1.01

SARS-CoV-2 Nsp15 K13N (enzyme)
hexamer/monomer ratio [5]: 0.63

SARS-CoV-2 Nsp15 H235Y (enzyme)
hexamer/monomer ratio [6]: 1.61

SARS-CoV-2 Nsp15 K290N (enzyme)
hexamer/monomer ratio [7]: 2.12

SARS-CoV-2 Nsp15 G18E (enzyme)
hexamer/monomer ratio [8]: 0.56

SARS-CoV-2 Nsp15 R207S (enzyme)
hexamer/monomer ratio [9]: 0.14

SARS-CoV-2 Nsp15 A93S (enzyme)
hexamer/monomer ratio [10]: 0.49

SARS-CoV-2 Nsp15 L163F (enzyme)
hexamer/monomer ratio [11]: 0.23

SARS-CoV-2 Nsp15 D133Y (enzyme)
hexamer/monomer ratio [12]: 0.48

SARS-CoV-2 Nsp15 K13R (enzyme)
hexamer/monomer ratio [13]: 1.18

SARS-CoV-2 Nsp15 V321M (enzyme)
hexamer/monomer ratio [14]: 0.65

SARS-CoV-2 Nsp15 W333C (enzyme)
hexamer/monomer ratio [15]: 0.77

SARS-CoV-2 Nsp15 P206S (enzyme)
hexamer/monomer ratio [16]: 2.49

SARS-CoV-2 Nsp15 V128F (enzyme)
hexamer/monomer ratio [17]: 0.5
